Molecular target: Carcinoembryonic antigen (CEA) (human) (UniProt P06731)
Experiment: cell-based or functional assay

Sequence of Carcinoembryonic antigen (CEA) (human) (P06731 35-702): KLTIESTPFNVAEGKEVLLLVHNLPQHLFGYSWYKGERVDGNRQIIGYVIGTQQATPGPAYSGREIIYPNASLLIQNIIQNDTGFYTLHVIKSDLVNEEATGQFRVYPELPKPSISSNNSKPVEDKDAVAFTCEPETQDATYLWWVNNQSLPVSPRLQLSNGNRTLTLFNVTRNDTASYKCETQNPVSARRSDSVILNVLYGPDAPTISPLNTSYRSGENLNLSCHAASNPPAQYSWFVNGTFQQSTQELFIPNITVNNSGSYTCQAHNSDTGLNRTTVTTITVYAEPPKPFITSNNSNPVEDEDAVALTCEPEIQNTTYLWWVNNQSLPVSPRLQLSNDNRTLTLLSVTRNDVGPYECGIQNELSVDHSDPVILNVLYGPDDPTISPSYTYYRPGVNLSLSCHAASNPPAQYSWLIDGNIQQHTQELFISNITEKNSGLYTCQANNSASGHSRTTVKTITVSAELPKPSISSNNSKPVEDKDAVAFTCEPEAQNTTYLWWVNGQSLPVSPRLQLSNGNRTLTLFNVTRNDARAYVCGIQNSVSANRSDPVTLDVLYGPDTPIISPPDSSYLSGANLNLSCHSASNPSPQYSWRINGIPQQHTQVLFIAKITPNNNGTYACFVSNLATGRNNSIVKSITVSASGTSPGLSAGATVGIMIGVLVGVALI

Pearson correlation of growth reduction with the fraction of CEAhi cancer cells in each PDO: 0.915 r
Substance: cibisatamab (bispecific antibody)
